What was measured:
[1] = molecular target: T1, RNA polymerase sigma70 holoenzyme, molecular beacon derivative (Ec Esigma70 beacon) (Escherichia coli) (UniProt P0A7Z4+P0A7Z4+P0A8V2+P0A8T7+P0A800+P00579); assay: RNAP beacon fluorescence; conditions: Equilibrium RNAP molecular beacon fluorescence, 25 C and 1 nM RNAP in competition assays, buffer, salt and pH not in material, Kd error 20% (>0.4 nM), ~50% …
[2] = molecular target: T1, RNA polymerase sigma70 holoenzyme, molecular beacon derivative (Ec Esigma70 beacon) (Escherichia coli); assay: competition; conditions: Equilibrium RNAP molecular beacon fluorescence; 25 C and 1 nM RNAP in competition assays; buffer, salt and pH not in material; Kd error 20% (>0.4 nM), ~50% …

“AAAAAAAGAATTTGACATCAGGAAAATTTTTTGGT (double strand) [probe 24]” was tested. Which Kd [1] did it give?
The Kd was 0.19 nM.

How did the Kd [1] turn out when “AAAAAAAGAATTTGACATCAGGAAAATTTTTTGGT / AGCAACCAAAAAATTTTCCTGATGTCAAATTCTTTTTTT [probe 27]” was run?
The Kd was < 0.1 nM.

With “AAAAAAAGAATTTGACATCAGGAAAATTTTTTGGTTGCT (double strand) [probe 25]” as the sequence, how does the Kd [1] read?
The Kd was 11 nM.

With “AAAAAAAGAATTTGACATCAGGAAAATTTTTTGGTTGCT / ACCAAAAAATTTTCCTGATGTCAAATTCTTTTTTT [probe 26]” as the sequence, how does the Kd [1] read?
The Kd was < 0.1 nM.

Which binding signal (fold weaker than probe 9) [1] does the source give for “GGAAAATTTTTTGGTATAAAAGA / ACCAAAAAATTTTCC [probe 9(-7A)]” here?
The binding signal (fold weaker than probe 9) was 710.

With “GGAAAATTTTTTGGTTTAATAGA / ACCAAAAAATTTTCC [probe 9(-11T)]” as the sequence, how does the binding signal (fold weaker than probe 9) [1] read?
Its binding signal (fold weaker than probe 9) is 300.

Which Kd [1] does the source give for TATAATGGGTTCAT [probe 30] here?
The Kd was 73 nM.

“TATTTGACATCAGGAAAATTTTTCTGT (double strand) [probe 1]” was tested. Which Kd [1] did it give?
The Kd was 62 nM.

With “TATTTGACATCAGGAAAATTTTTCTGTA / ATTATACAGAAAAATTTTCCTGATGTCAAATA [probe 29]” as the sequence, how does the binding signal (fold tighter than probe 19) [1] read?
The binding signal (fold tighter than probe 19) was 13.

Which binding signal (fold tighter than probe 19) [1] does the source give for “TATTTGACATCAGGAAAATTTTTCTGTA / TTATACAGAAAAATTTTCCTGATGTCAAATA [probe 28]” here?
The binding signal (fold tighter than probe 19) was 5.

Which binding signal (fold weaker than probe 10) [1] does the source give for “TATTTGACATCAGGAAAATTTTTCTGTAGTTA / ACAGAAAAATTTTCCTGATGTCAAATA [probe 10(-7A)]” here?
The binding signal (fold weaker than probe 10) was 8.

For “TATTTGACATCAGGAAAATTTTTCTGTATAA / ACAGAAAAATTTTCCTGATGTCAAATA [probe 5]”, which binding signal (fold tighter than probe 2) [2] is on record?
Its binding signal (fold tighter than probe 2) is 50.

For “TATTTGACATCAGGAAAATTTTTCTGTATAA / CAGAAAAATTTTCCTGATGTCAAATA [probe 31]”, which binding signal (fold weaker than probe 5) [2] is on record?
The binding signal (fold weaker than probe 5) was 10.

How did the binding signal (fold weaker than probe 2) [1] turn out when “TATTTGACATCAGGAAAATTTTTCTGTT / ACAGAAAAATTTTCCTGATGTCAAATA [probe 2(-11T)]” was run?
The binding signal (fold weaker than probe 2) was 5.

“TATTTGACATCAGGAAAATTTTTCTGTTGTTA / ACAGAAAAATTTTCCTGATGTCAAATA [probe 11(-7A)]” was tested. Which binding signal (fold weaker than probe 11) [1] did it give?
Its binding signal (fold weaker than probe 11) is 2.4.

“TATTTGACATCAGGAAAATTTTTCTGTTT / ACAGAAAAATTTTCCTGATGTCAAATA [probe 3(-11T)]” was tested. Which binding signal (fold weaker than probe 3) [1] did it give?
Its binding signal (fold weaker than probe 3) is 5.

“TATTTGACATCAGGAAAATTTTTCTGTTTAA (double strand) [probe 22(-11T)]” was tested. Which Kd [1] did it give?
Its Kd is 120 nM.

With “TATTTGACATCAGGAAAATTTTTCTGTTTAA / ACAGAAAAATTTTCCTGATGTCAAATA [probe 5(-11T)]” as the sequence, how does the binding signal (fold weaker than probe 5) [1] read?
Its binding signal (fold weaker than probe 5) is 200.

“TATTTGACATCAGGAAAATTTTTCTGTTTAAA / ACAGAAAAATTTTCCTGATGTCAAATA [probe 6(-11T,-7A)]” was tested. Which binding signal (fold weaker than probe 6(-11T)) [1] did it give?
Its binding signal (fold weaker than probe 6(-11T)) is 110.

How did the Kd [1] turn out when “TATTTGACATCAGGAAAATTTTTCTGTTTAAT (double strand) [probe 23(-11T)]” was run?
Its Kd is 16 nM.

Which binding signal (fold weaker than probe 6) ([1]; ~120-fold tighter than 5(-11T)) does the source give for “TATTTGACATCAGGAAAATTTTTCTGTTTAAT / ACAGAAAAATTTTCCTGATGTCAAATA [probe 6(-11T)]” here?
Its binding signal (fold weaker than probe 6) is 1000.

For “TATTTGACATCAGGAAAATTTTTTGGA (double strand) [probe 15(-12A)]”, which binding signal (fold weaker than probe 15) [1] is on record?
Its binding signal (fold weaker than probe 15) is 4.

For “TATTTGACATCAGGAAAATTTTTTGGAATAA / TCCAAAAAATTTTCCTGATGTCAAATA [probe 17(-12A)]”, which binding signal (fold tighter than 16(-12A)) ([1]; strongly weaker than probe 17) is on record?
Its binding signal (fold tighter than 16(-12A)) is 6.

For “TATTTGACATCAGGAAAATTTTTTGGAATAAT / TCCAAAAAATTTTCCTGATGTCAAATA [probe 18(-12A)]”, which binding signal (fold tighter than 17(-12A)) [1] is on record?
The binding signal (fold tighter than 17(-12A)) was 300.

“TATTTGCTTTCAGGAAAATTTTTCTGTATAAA / CAGAAAAATTTTCCTGAAAGCAAATA [probe 8(-7A)]” was tested. Which binding signal (fold weaker than probe 8) [1] did it give?
Its binding signal (fold weaker than probe 8) is 210.

For “TGGTTGACTTTTGCCAGATACTGAGGCTGGC / GCCTCAGTATCTGGCAAAAGTCAACCA [probe 13]”, which Kd [1] is on record?
The Kd was 100 nM.

With “TGGTTGACTTTTGCCAGATACTGAGGCTGGCA / GCCTCAGTATCTGGCAAAAGTCAACCA [probe 12(-7A)]” as the sequence, how does the Kd [1] read?
The Kd was 100 nM.

How did the Kd [1] turn out when “TGGTTGACTTTTGCCAGATACTGAGGCTGGCT / GCCTCAGTATCTGGCAAAAGTCAACCA [probe 12]” was run?
Its Kd is 11 nM.
